# Measured values taken from the supplement of paper PMC10567573.
# B1: CPOX (parent)
# chain: HAPTIHFNYRYFEVEEADGNKQWW
# Variants of: B1
# Experiment: protein stability index of a GFP-peptide fusion (GPS, HEK-293T) (PSI 1-6); higher = more stable
# Settings: c terminus: a fixed tail appended
# 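Also: lentivirally expressed fusions sorted by FACS into six bins by GFP to DsRed ratio, PSI derived from sequencing read proportions per bin multiplied by bin number.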
row,Variant,protein stability index
1,HAPTIHFSYRYFEVEEADGNKQWW,3.03
2,HAPTIHFTYRYFEVEEADGNKQWW,1.87
3,HAPTIHFVYRYFEVEEADGNKQWW,1.57
4,HAPTIHFWYRYFEVEEADGNKQWW,1.52
5,HAPTIHFYYRYFEVEEADGNKQWW,2.02
6,HAPTIHFNARYFEVEEADGNKQWW,2.33
7,HAPTIHFNCRYFEVEEADGNKQWW,1.29
8,HAPTIHFNDRYFEVEEADGNKQWW,3.46
9,HAPTIHFNERYFEVEEADGNKQWW,3.5
10,HAPTIHFNFRYFEVEEADGNKQWW,2.05
11,HAPTIHFNHRYFEVEEADGNKQWW,2.9
12,HAPTIHFNIRYFEVEEADGNKQWW,2.22
13,HAPTIHFNKRYFEVEEADGNKQWW,3.37
14,HAPTIHFNLRYFEVEEADGNKQWW,3.03
15,HAPTIHFNMRYFEVEEADGNKQWW,2.6
16,HAPTIHFNNRYFEVEEADGNKQWW,3.16
17,HAPTIHFNPRYFEVEEADGNKQWW,3.1
18,HAPTIHFNQRYFEVEEADGNKQWW,2.82
19,HAPTIHFNRRYFEVEEADGNKQWW,3.23
20,HAPTIHFNTRYFEVEEADGNKQWW,2.79
21,HAPTIHFNVRYFEVEEADGNKQWW,2.25
22,HAPTIHFNWRYFEVEEADGNKQWW,3.32
23,HAPTIHFNYAYFEVEEADGNKQWW,2.56
24,HAPTIHFNYCYFEVEEADGNKQWW,1.5

row,Variant,protein stability index
1,HAPTIHFNYDYFEVEEADGNKQWW,3.03
2,HAPTIHFNYEYFEVEEADGNKQWW,2.7
3,HAPTIHFNYFYFEVEEADGNKQWW,1.77
4,HAPTIHFNYGYFEVEEADGNKQWW,2.42
5,HAPTIHFNYHYFEVEEADGNKQWW,2.44
6,HAPTIHFNYIYFEVEEADGNKQWW,2.87
7,HAPTIHFNYKYFEVEEADGNKQWW,2.47
8,HAPTIHFNYLYFEVEEADGNKQWW,2.25
9,HAPTIHFNYMYFEVEEADGNKQWW,2.37
10,HAPTIHFNYNYFEVEEADGNKQWW,2.12
11,HAPTIHFNYPYFEVEEADGNKQWW,2.38
12,HAPTIHFNYQYFEVEEADGNKQWW,2.81
13,HAPTIHFNYSYFEVEEADGNKQWW,2.07
14,HAPTIHFNYTYFEVEEADGNKQWW,2.55
15,HAPTIHFNYVYFEVEEADGNKQWW,2.48
16,HAPTIHFNYWYFEVEEADGNKQWW,1.99
17,HAPTIHFNYYYFEVEEADGNKQWW,2.27
18,HAPTIHFNYRAFEVEEADGNKQWW,3.23
19,HAPTIHFNYRCFEVEEADGNKQWW,1.99
20,HAPTIHFNYRDFEVEEADGNKQWW,3.12
21,HAPTIHFNYREFEVEEADGNKQWW,3.35
22,HAPTIHFNYRFFEVEEADGNKQWW,2.26
23,HAPTIHFNYRGFEVEEADGNKQWW,2.62
24,HAPTIHFNYRHFEVEEADGNKQWW,3.13

row,Variant,protein stability index
1,HAPTIHFNYRIFEVEEADGNKQWW,2.16
2,HAPTIHFNYRKFEVEEADGNKQWW,2.84
3,HAPTIHFNYRLFEVEEADGNKQWW,2.39
4,HAPTIHFNYRMFEVEEADGNKQWW,2.42
5,HAPTIHFNYRNFEVEEADGNKQWW,2.98
6,HAPTIHFNYRPFEVEEADGNKQWW,2.98
7,HAPTIHFNYRRFEVEEADGNKQWW,2.36
8,HAPTIHFNYRSFEVEEADGNKQWW,2.92
9,HAPTIHFNYRTFEVEEADGNKQWW,3.23
10,HAPTIHFNYRVFEVEEADGNKQWW,2.12
11,HAPTIHFNYRWFEVEEADGNKQWW,2.79
12,HAPTIHFNYRYAEVEEADGNKQWW,2.49
13,HAPTIHFNYRYCEVEEADGNKQWW,2.02
14,HAPTIHFNYRYDEVEEADGNKQWW,3.51
15,HAPTIHFNYRYEEVEEADGNKQWW,2.99
16,HAPTIHFNYRYGEVEEADGNKQWW,3.51
17,HAPTIHFNYRYHEVEEADGNKQWW,3.01
18,HAPTIHFNYRYIEVEEADGNKQWW,2.33
19,HAPTIHFNYRYKEVEEADGNKQWW,3.04
20,HAPTIHFNYRYLEVEEADGNKQWW,2.64
21,HAPTIHFNYRYMEVEEADGNKQWW,2.52
22,HAPTIHFNYRYNEVEEADGNKQWW,3.05
23,HAPTIHFNYRYPEVEEADGNKQWW,3.12
24,HAPTIHFNYRYQEVEEADGNKQWW,2.63

row,Variant,protein stability index
1,HAPTIHFNYRYREVEEADGNKQWW,2.96
2,HAPTIHFNYRYSEVEEADGNKQWW,2.87
3,HAPTIHFNYRYTEVEEADGNKQWW,3.08
4,HAPTIHFNYRYWEVEEADGNKQWW,1.99
5,HAPTIHFNYRYYEVEEADGNKQWW,2.84
6,HAPTIHFNYRYFAVEEADGNKQWW,1.97
7,HAPTIHFNYRYFCVEEADGNKQWW,2.07
8,HAPTIHFNYRYFDVEEADGNKQWW,2.36
9,HAPTIHFNYRYFFVEEADGNKQWW,1.63
10,HAPTIHFNYRYFGVEEADGNKQWW,2.06
11,HAPTIHFNYRYFHVEEADGNKQWW,2.09
12,HAPTIHFNYRYFIVEEADGNKQWW,2.04
13,HAPTIHFNYRYFKVEEADGNKQWW,1.8
14,HAPTIHFNYRYFLVEEADGNKQWW,1.41
15,HAPTIHFNYRYFMVEEADGNKQWW,2.22
16,HAPTIHFNYRYFNVEEADGNKQWW,2.15
17,HAPTIHFNYRYFPVEEADGNKQWW,1.86
18,HAPTIHFNYRYFQVEEADGNKQWW,2.17
19,HAPTIHFNYRYFRVEEADGNKQWW,1.56
20,HAPTIHFNYRYFSVEEADGNKQWW,1.45
21,HAPTIHFNYRYFTVEEADGNKQWW,1.67
22,HAPTIHFNYRYFVVEEADGNKQWW,2.52
23,HAPTIHFNYRYFWVEEADGNKQWW,2.31
24,HAPTIHFNYRYFYVEEADGNKQWW,1.7

row,Variant,protein stability index
1,HAPTIHFNYRYFEAEEADGNKQWW,2.52
2,HAPTIHFNYRYFECEEADGNKQWW,1.82
3,HAPTIHFNYRYFEDEEADGNKQWW,3.06
4,HAPTIHFNYRYFEEEEADGNKQWW,3.62
5,HAPTIHFNYRYFEFEEADGNKQWW,2.11
6,HAPTIHFNYRYFEGEEADGNKQWW,3.15
7,HAPTIHFNYRYFEHEEADGNKQWW,2.4
8,HAPTIHFNYRYFEIEEADGNKQWW,2.44
9,HAPTIHFNYRYFEKEEADGNKQWW,2.85
10,HAPTIHFNYRYFELEEADGNKQWW,2.37
11,HAPTIHFNYRYFEMEEADGNKQWW,2.06
12,HAPTIHFNYRYFENEEADGNKQWW,2.42
13,HAPTIHFNYRYFEPEEADGNKQWW,2.29
14,HAPTIHFNYRYFEQEEADGNKQWW,2.85
15,HAPTIHFNYRYFEREEADGNKQWW,2.29
16,HAPTIHFNYRYFESEEADGNKQWW,2.44
17,HAPTIHFNYRYFETEEADGNKQWW,2.43
18,HAPTIHFNYRYFEWEEADGNKQWW,2.35
19,HAPTIHFNYRYFEYEEADGNKQWW,2.23
20,HAPTIHFNYRYFEVAEADGNKQWW,1.93
21,HAPTIHFNYRYFEVCEADGNKQWW,2.15
22,HAPTIHFNYRYFEVDEADGNKQWW,2.58
23,HAPTIHFNYRYFEVFEADGNKQWW,2.14
24,HAPTIHFNYRYFEVGEADGNKQWW,2.04

row,Variant,protein stability index
1,HAPTIHFNYRYFEVHEADGNKQWW,1.5
2,HAPTIHFNYRYFEVIEADGNKQWW,2.7
3,HAPTIHFNYRYFEVKEADGNKQWW,2.56
4,HAPTIHFNYRYFEVLEADGNKQWW,2.49
5,HAPTIHFNYRYFEVMEADGNKQWW,2.35
6,HAPTIHFNYRYFEVNEADGNKQWW,1.84
7,HAPTIHFNYRYFEVPEADGNKQWW,2.13
8,HAPTIHFNYRYFEVQEADGNKQWW,2.2
9,HAPTIHFNYRYFEVREADGNKQWW,1.41
10,HAPTIHFNYRYFEVSEADGNKQWW,2.49
11,HAPTIHFNYRYFEVTEADGNKQWW,1.81
12,HAPTIHFNYRYFEVVEADGNKQWW,1.79
13,HAPTIHFNYRYFEVWEADGNKQWW,2.4
14,HAPTIHFNYRYFEVYEADGNKQWW,1.9
15,HAPTIHFNYRYFEVEAADGNKQWW,1.67
16,HAPTIHFNYRYFEVECADGNKQWW,1.67
17,HAPTIHFNYRYFEVEDADGNKQWW,2.13
18,HAPTIHFNYRYFEVEFADGNKQWW,1.44
19,HAPTIHFNYRYFEVEGADGNKQWW,2.21
20,HAPTIHFNYRYFEVEHADGNKQWW,1.82
21,HAPTIHFNYRYFEVEIADGNKQWW,2.29
22,HAPTIHFNYRYFEVEKADGNKQWW,2.18
23,HAPTIHFNYRYFEVELADGNKQWW,1.44
24,HAPTIHFNYRYFEVEMADGNKQWW,2.81

row,Variant,protein stability index
1,HAPTIHFNYRYFEVENADGNKQWW,1.83
2,HAPTIHFNYRYFEVEPADGNKQWW,1.83
3,HAPTIHFNYRYFEVEQADGNKQWW,2.39
4,HAPTIHFNYRYFEVERADGNKQWW,1.91
5,HAPTIHFNYRYFEVESADGNKQWW,2.24
6,HAPTIHFNYRYFEVETADGNKQWW,2.53
7,HAPTIHFNYRYFEVEYADGNKQWW,1.37
8,HAPTIHFNYRYFEVEECDGNKQWW,2.08
9,HAPTIHFNYRYFEVEEDDGNKQWW,2.6
10,HAPTIHFNYRYFEVEEEDGNKQWW,3.01
11,HAPTIHFNYRYFEVEEFDGNKQWW,1.97
12,HAPTIHFNYRYFEVEEGDGNKQWW,2.57
13,HAPTIHFNYRYFEVEEHDGNKQWW,1.89
14,HAPTIHFNYRYFEVEEIDGNKQWW,1.86
15,HAPTIHFNYRYFEVEEKDGNKQWW,2.9
16,HAPTIHFNYRYFEVEELDGNKQWW,1.96
17,HAPTIHFNYRYFEVEEMDGNKQWW,2.27
18,HAPTIHFNYRYFEVEENDGNKQWW,3.19
19,HAPTIHFNYRYFEVEEPDGNKQWW,2.05
20,HAPTIHFNYRYFEVEEQDGNKQWW,2.31
21,HAPTIHFNYRYFEVEERDGNKQWW,2.02
22,HAPTIHFNYRYFEVEESDGNKQWW,2.23
23,HAPTIHFNYRYFEVEETDGNKQWW,2.35
24,HAPTIHFNYRYFEVEEVDGNKQWW,1.9

row,Variant,protein stability index
1,HAPTIHFNYRYFEVEEYDGNKQWW,1.77
2,HAPTIHFNYRYFEVEEAAGNKQWW,2.6
3,HAPTIHFNYRYFEVEEACGNKQWW,1.61
4,HAPTIHFNYRYFEVEEAEGNKQWW,2.63
5,HAPTIHFNYRYFEVEEAFGNKQWW,3.24
6,HAPTIHFNYRYFEVEEAGGNKQWW,2.45
7,HAPTIHFNYRYFEVEEAHGNKQWW,2.86
8,HAPTIHFNYRYFEVEEAIGNKQWW,1.5
9,HAPTIHFNYRYFEVEEAKGNKQWW,2.16
10,HAPTIHFNYRYFEVEEALGNKQWW,1.3
11,HAPTIHFNYRYFEVEEAMGNKQWW,1.7
12,HAPTIHFNYRYFEVEEANGNKQWW,2.32
13,HAPTIHFNYRYFEVEEAPGNKQWW,1.71
14,HAPTIHFNYRYFEVEEAQGNKQWW,3.07
15,HAPTIHFNYRYFEVEEARGNKQWW,2.18
16,HAPTIHFNYRYFEVEEASGNKQWW,2
17,HAPTIHFNYRYFEVEEATGNKQWW,1.89
18,HAPTIHFNYRYFEVEEAVGNKQWW,1.68
19,HAPTIHFNYRYFEVEEAYGNKQWW,1.07
20,HAPTIHFNYRYFEVEEADANKQWW,2.33
